The text below walks through data of publication PMC10273338, “HspB8 interacts with BAG3 in a “native‐like” conformation forming a complex that displays chaperone‐like activity” (Protein Science : A Publication of the Protein Society, 2023).

The labels stand for the following.
B1: Josephin domain of ataxin-3 (domain or fragment, UniProt P54252 1-180, looked up)
chain: MESIFHEKQEGSLCAQHCLNNLLQGEYFSPVELSSIAHQLDEEERMRMAEGGVTSEDYRTFLQQPSGNMDDSGFFSIQVISNALKVWGLELILFNSPEYQRLRIDPINERSFICNYKEHWFTVRKLGKQWFNLNSLLTGPELISDTYLALFLAQLQQEGYSIFVVKGDLPDCEADQLLQM
notes: cloned in pET21-a; likely residues 1-182 of human ataxin-3 (surmised). pET21-a may add a C-terminal His6 tag; also called JD; source: E. coli BL21 Tuner (DE3) pLacI, purified as previously described (Bonanomi et al., 2015)
B2: HspB8 (natural protein, UniProt Q9UJY1 1-196, looked up)
chain: MADGQMPFSCHYPSRLRRDPFRDSPLSSRLLDDGFGMDPFPDDLTASWPDWALPRLSSAWPGTLRSGMVPRGPTATARFGVPAEGRTPPPFPGEPWKVCVNVHSFKPEELMVKTKDGYVEVSGKHEEKQQEGGIVSKNFTKKIQLPAEVDPVTVFASLSPEGLLIIEAPQVPPYSTFGESSFNNELPQDSQEVTCT
notes: HspB8, small heat shock protein; gene in pGEX-6P-1, provided by Serena Carra; source: E. coli BL21-CodonPlus(DE3)-RIL, purified (Glutathione Sepharose, PreScission cleavage on the resin, Superose 12 SEC); not shown: GST, N-terminal, cleaved
B3: HspB8-BAG3 complex (complex)
chain 1: MADGQMPFSCHYPSRLRRDPFRDSPLSSRLLDDGFGMDPFPDDLTASWPDWALPRLSSAWPGTLRSGMVPRGPTATARFGVPAEGRTPPPFPGEPWKVCVNVHSFKPEELMVKTKDGYVEVSGKHEEKQQEGGIVSKNFTKKIQLPAEVDPVTVFASLSPEGLLIIEAPQVPPYSTFGESSFNNELPQDSQEVTCT
chain 2: not shown

In assay [1] the target is T1, BAG3 (Bcl-2 associated athanogene protein 3) (human, UniProt O95817 1-575).
T1 construct: BAG3, human; no removal of the tag is described; source: E. coli M15 (pREP4), purified (HisPur Cobalt resin, Superose 12 SEC)
The assay can be described thus: SPR; BIACORE X100; JD amine-coupled to a CM5 chip (3000 RU); single cycle kinetics at 25°C, 10 uL/min, 10 mM HEPES pH 7.4, 150 mM NaCl, 3 mM EDTA, 0.005% P20; Langmuir 1:1 fit, complex assumed to bind JD 1:1. The note with it: both partners purified. In general terms: SPR reads the build-up and loss of mass on a sensor chip optically.

In the assay “HspB8-BAG3 complex” the target is B3. The assay is described as above. The note with it: both partners purified.
The target in the assay “HspB8” is B2. The description is as above. The settings on record: both partners purified.
Assay [2] addresses T1, BAG3 (Bcl-2 associated athanogene …). The assay can be described thus: SPR; BIACORE X; HspB8 amine-coupled to a CM5 chip (7400 RU); running buffer 10 mM HEPES pH 7.4, 150 mM NaCl, 3 mM EDTA, 0.005% P20; 10 uL/min; Langmuir 1:1 fit. The note with it: both partners purified.
Assay [3] addresses B1. The assay can be described thus: cell-based or functional assay.
Assay [4] concerns the target T1, BAG3 (Bcl-2 associated athanogene …). The assay can be described thus: SPR; BIACORE X; BAG3 amine-coupled to a CM5 chip (3400 RU); running buffer 10 mM HEPES pH 7.4, 150 mM NaCl, 3 mM EDTA, 0.005% P20; 10 uL/min; Langmuir 1:1 fit. The settings on record: both partners purified.

T1 sequence (O95817 whole entry): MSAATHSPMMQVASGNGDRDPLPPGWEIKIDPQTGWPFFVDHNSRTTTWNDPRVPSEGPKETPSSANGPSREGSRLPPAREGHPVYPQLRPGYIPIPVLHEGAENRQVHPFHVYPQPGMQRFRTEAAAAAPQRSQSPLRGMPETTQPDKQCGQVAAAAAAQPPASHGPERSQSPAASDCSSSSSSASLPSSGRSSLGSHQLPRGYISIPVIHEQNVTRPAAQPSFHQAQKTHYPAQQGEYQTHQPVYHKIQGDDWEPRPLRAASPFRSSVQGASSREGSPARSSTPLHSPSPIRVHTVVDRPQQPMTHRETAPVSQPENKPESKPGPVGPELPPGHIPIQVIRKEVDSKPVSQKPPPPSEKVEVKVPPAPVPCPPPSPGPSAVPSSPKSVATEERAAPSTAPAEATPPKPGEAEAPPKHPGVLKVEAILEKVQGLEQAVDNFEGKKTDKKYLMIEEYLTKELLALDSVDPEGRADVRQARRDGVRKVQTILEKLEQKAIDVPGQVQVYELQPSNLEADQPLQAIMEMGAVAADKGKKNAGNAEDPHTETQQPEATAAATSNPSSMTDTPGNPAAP
HspB8-BAG3 complex, sequence (O95817 whole entry, one chain of several): as the sequence (O95817 whole entry) above

In assay [1], B1 had a Ka of 190000 M⁻¹, a Kd of 5400 nM, a koff of 0.0014 s⁻¹ and a kon of 260 M⁻¹ s⁻¹. In addition, in the assay with HspB8-BAG3 complex, the Ka is 1.4e+07 M⁻¹, the Kd came out at 73 nM, the koff was found to be 0.00024 s⁻¹ and the kon turned out to be 3300 M⁻¹ s⁻¹. In the assay with HspB8, this molecule yielded a Ka of 120000 M⁻¹, an equilibrium dissociation constant (Kd) of 8100 nM, a koff of 0.0006 s⁻¹ and a kon of 74 M⁻¹ s⁻¹.
Consider B2, for which, in assay [2], the Ka came out at 4.2e+08 M⁻¹, the Kd worked out at 2.4 nM, the koff is 0.00022 s⁻¹ and the kon turned out to be 93000 M⁻¹ s⁻¹. Moreover, the “inhibition of JD aggregation (ThT fluorescence, 10 uM JD at 37°C with HspB8 at different molar ratios; 20% at JD:HspB8 1:0.093, maximum at 4:1)” value in assay [3] was found to be 35%. For the same molecule, in assay [4], the Ka was 2.2e+08 M⁻¹, binding was put at a Kd of 4.5 nM, the koff is 0.00056 s⁻¹ and the on-rate constant (kon) was 130000 M⁻¹ s⁻¹.
As to B3, the “inhibition of JD aggregation (ThT fluorescence, 10 uM JD at 37°C with the HspB8-BAG3 complex at different ratios; maximum at JD:complex 1:0.5)” value in assay [3] worked out at 40%.

As usually defined, the Kd is the concentration at which binding is half-saturated. For orientation: koff means the first-order rate constant of dissociation. Lower therefore signals slow dissociation. Broadly, the kon is the rate constant with which the complex forms.
